Assay results taken from PMC6488192 (2019).

Assays:
Conditions in all cases: parent: 1; read off a plot
[1] = biological target: GAP1, endogenous; test: IgG pulldown of TAP-tagged REH2, western blot quantification
[2] = biological target: REL1 ligase, endogenous (UniProt P86927); test: IgG pulldown of TAP-tagged H2F1, self-adenylation reaction quantification
[3] = biological target: GAP1, endogenous; test: IgG pulldown of TAP-tagged H2F1, western blot quantification
[4] = biological target: RNA Editing Helicase 2 (REH2), endogenous (UniProt Q581T1); test: as above
[5] = biological target: REH2-Associated Factor 1 (^H2F1), endogenous (UniProt Q585P3); test: as above
Chain of REH2-Associated Factor 1 (^H2F1), endogenous (Q585P3 23-524): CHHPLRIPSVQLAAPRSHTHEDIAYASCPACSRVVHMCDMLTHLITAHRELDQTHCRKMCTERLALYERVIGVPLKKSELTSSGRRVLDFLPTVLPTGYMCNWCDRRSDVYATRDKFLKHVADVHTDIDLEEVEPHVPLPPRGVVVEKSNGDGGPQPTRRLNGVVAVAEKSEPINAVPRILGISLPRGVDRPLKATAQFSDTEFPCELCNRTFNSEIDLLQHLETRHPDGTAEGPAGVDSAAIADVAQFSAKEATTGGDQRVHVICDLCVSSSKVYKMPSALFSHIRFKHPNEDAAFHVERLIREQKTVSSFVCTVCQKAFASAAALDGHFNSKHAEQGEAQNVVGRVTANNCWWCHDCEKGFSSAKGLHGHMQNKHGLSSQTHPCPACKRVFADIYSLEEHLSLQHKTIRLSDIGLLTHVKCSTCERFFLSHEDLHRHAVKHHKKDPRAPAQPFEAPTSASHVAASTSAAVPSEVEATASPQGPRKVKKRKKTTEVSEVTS

Chain of ^H2F1 wild type with TAP tag (from UniProt Q585P3) Z5 R/K>A (Q585P3 23-524, change not shown): as the sequence (Q585P3 23-524) above
Chain of ^H2F1 wild type with TAP tag (from UniProt Q585P3) Z2 R/K>A (Q585P3 23-524, change not shown): as the sequence (Q585P3 23-524) above
Chain of ^H2F1 wild type with TAP tag (from UniProt Q585P3) Z3 R/K>A (Q585P3 23-524, change not shown): as the sequence (Q585P3 23-524) above
Chain of ^H2F1 wild type with TAP tag (from UniProt Q585P3) Z1 R/K>A (Q585P3 23-524, change not shown): as the sequence (Q585P3 23-524) above

Substance	ratio to parent [1]	ratio to parent [2]	ratio to parent [3]	ratio to parent [4]	ratio to parent [5]
RNA Editing Helicase 2 (REH2) wild type with TAP tag (from UniProt Q581T1) R1979A	1	–	–	–	–
^H2F1 wild type with TAP tag (from UniProt Q585P3) Z5 R/K>A	–	0.77	0.99	0.97	1
RNA Editing Helicase 2 (REH2) wild type with TAP tag (from UniProt Q581T1) K1078A; A1086D	0.17	–	–	–	–
^H2F1 wild type with TAP tag (from UniProt Q585P3) Z1 R/K>A	–	0.72	0.85	0.75	0.87
^H2F1 wild type with TAP tag (from UniProt Q585P3) Z3 R/K>A	–	0.62	1	0.85	1.2
^H2F1 wild type with TAP tag (from UniProt Q585P3) Z2 R/K>A	–	0.83	0.95	0.78	0.83
RNA Editing Helicase 2 (REH2) wild type with TAP tag (from UniProt Q581T1) R2023A	0.66	–	–	–	–
RNA Editing Helicase 2 (REH2) wild type with TAP tag (from UniProt Q581T1) H1998E	0.52	–	–	–	–
